In publication PMC4330383:

Columns and labels:
[1] = biological target: histones H3-H4 (full-length, recombinant Drosophila melanogaster) (Drosophila melanogaster) (UniProt P02299); experiment: SEC-MALS; Superdex 200 10/300 GL Increase, 50 mM Tris pH 8.0, 0.5 M NaCl, 20°C
[2] = biological target: histones H3-H4 (full-length, recombinant Drosophila melanogaster) (Drosophila melanogaster) (UniProt P02299); experiment: SEC-MALS; Superdex 200 10/300 GL Increase, 50 mM Tris pH 8.0, 1.5 M NaCl; for H3-H4 alone: tetramer of two H3-H4 dimers

Sequence of ASF1a (1–156) (Q9Y294 1-156): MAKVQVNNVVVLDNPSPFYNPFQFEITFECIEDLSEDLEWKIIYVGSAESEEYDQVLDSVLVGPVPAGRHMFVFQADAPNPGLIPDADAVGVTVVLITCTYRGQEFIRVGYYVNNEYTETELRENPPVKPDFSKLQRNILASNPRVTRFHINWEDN

| stoichiometry N (ASF1 per H3-H4 dimer (ratio H3:H4:ASF1)) [1] | stoichiometry N (ASF1 per H3-H4 dimer (ratio H3:H4:ASF1)) [2] | stoichiometry N ([2]; scale: H3-H4 dimers in the oligomer) | Substance |
| --- | --- | --- | --- |
| 1 | 1 |  | ASF1a (1–156) (from UniProt Q9Y294 1-156) (domain or fragment; other documents disagree on this pair) |
|  |  | 2 | histones H3-H4 (full-length, recombinant Drosophila melanogaster) (from UniProt P02299 1-136; P84040 1-103) (complex) |
